Legend:
Experiment in all cases: SEC; size exclusion chromatography coupled online to ICP-sfMS (HPLC-ICP-MS) with diode array detection, metal-free HPLC system; apparent MW from a calibration curve; purified MTs with their bound metals
[1] = target: native (non-tagged) Brassica napus metallothionein BnMT2 (Brassica napus)
[2] = target: native (non-tagged) Brassica napus metallothionein BnMT3b (Brassica napus)
[3] = target: native (non-tagged) Brassica napus metallothionein BnMT3a (Brassica napus)

native (non-tagged) Brassica napus metallothionein BnMT2 (natural protein)
stoichiometry N [1]: 2

native (non-tagged) Brassica napus metallothionein BnMT3b (natural protein)
stoichiometry N [2]: 2

native (non-tagged) Brassica napus metallothionein BnMT3a (natural protein)
stoichiometry N [3]: 2

— article PMC11497405
